From patent US20200033338A1

Legend:
[1] = biological target: Torpedo 39MIR peptide-intein-chitin-binding domain (IChBD) fusion protein (Torpedo); assay: Western blot of peptide-IChBD fusion (FIG. 5)
[2] = biological target: Torpedo 39MIR single mutant A70D, IChBD fusion (Torpedo); assay: Western blot of peptide-IChBD fusion (FIG. 5)
[3] = biological target: Torpedo 39MIR single mutant D111Q, IChBD fusion (Torpedo); assay: Western blot of peptide-IChBD fusion (FIG. 5)
[4] = biological target: Torpedo 39MIR single mutant I75V, IChBD fusion (Torpedo); assay: Western blot of peptide-IChBD fusion (FIG. 5)
Chain of Torpedo 39MIR single mutant I75V, IChBD fusion (Torpedo) (chain, as listed by the source I75V I75V): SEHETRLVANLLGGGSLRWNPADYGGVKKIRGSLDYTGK

[5] = biological target: Torpedo 39MIR single mutant K115H, IChBD fusion (Torpedo); assay: Western blot of peptide-IChBD fusion (FIG. 5)
Chain of Torpedo 39MIR single mutant K115H, IChBD fusion (Torpedo) (chain, as listed by the source K115H K115H): as the sequence (chain, as listed by the source I75V I75V) above, with V27I, K39H counted along it

[6] = biological target: Torpedo 39MIR single mutant L12F, IChBD fusion (Torpedo); assay: Western blot of peptide-IChBD fusion (FIG. 5)
Chain of Torpedo 39MIR single mutant L12F, IChBD fusion (Torpedo) (chain, as listed by the source L12F L12F): as the sequence (chain, as listed by the source I75V I75V) above, with L12F, V27I counted along it

[7] = biological target: Torpedo 39MIR single mutant N10K, IChBD fusion (Torpedo); assay: Western blot of peptide-IChBD fusion (FIG. 5)
Chain of Torpedo 39MIR single mutant N10K, IChBD fusion (Torpedo) (chain, as listed by the source N10K N10K): as the sequence (chain, as listed by the source I75V I75V) above, with N10K, V27I counted along it

[8] = biological target: Torpedo 39MIR single mutant R66K, IChBD fusion (Torpedo); assay: Western blot of peptide-IChBD fusion (FIG. 5)
Chain of Torpedo 39MIR single mutant R66K, IChBD fusion (Torpedo) (chain, as listed by the source R66K R66K): as the sequence (chain, as listed by the source I75V I75V) above, with R18K, V27I counted along it

[9] = biological target: Torpedo 39MIR single mutant R79H, IChBD fusion (Torpedo); assay: Western blot of peptide-IChBD fusion (FIG. 5)
Chain of Torpedo 39MIR single mutant R79H, IChBD fusion (Torpedo) (chain, as listed by the source R79H R79H): as the sequence (chain, as listed by the source I75V I75V) above, with V27I, R31H counted along it

[10] = biological target: K10N/D70A human 39MIR double mutant, IChBD fusion (human); assay: Western blot of peptide-IChBD fusion (FIG. 7)
Chain of K10N/D70A human 39MIR double mutant, IChBD fusion (human) (chain, as listed by the source K10N D70A K10N D70A): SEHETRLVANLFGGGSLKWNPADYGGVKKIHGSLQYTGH

[11] = biological target: K10N/D70A/V75I/Q111D human 39MIR quadruple mutant, IChBD fusion (human); assay: Western blot of peptide-IChBD fusion (FIG. 7)
Chain of K10N/D70A/V75I/Q111D human 39MIR quadruple mutant, IChBD fusion (human) (chain, as listed by the source K10N D70A V75I Q111D K10N D70A V75I Q111D): as the sequence (chain, as listed by the source K10N D70A K10N D70A) above, with V27I, Q35D counted along it

[12] = biological target: K10N/Q111D human 39MIR double mutant, IChBD fusion (human); assay: Western blot of peptide-IChBD fusion (FIG. 7)
Chain of K10N/Q111D human 39MIR double mutant, IChBD fusion (human) (chain, as listed by the source K10N Q111D K10N Q111D): as the sequence (chain, as listed by the source K10N D70A K10N D70A) above, with A22D, Q35D counted along it

[13] = biological target: K10N/V75I human 39MIR double mutant, IChBD fusion (human); assay: Western blot of peptide-IChBD fusion (FIG. 7)
Chain of K10N/V75I human 39MIR double mutant, IChBD fusion (human) (chain, as listed by the source K10N V75I K10N V75I): as the sequence (chain, as listed by the source K10N D70A K10N D70A) above, with A22D, V27I counted along it

[14] = biological target: K10N/V75I/Q111D human 39MIR triple mutant, IChBD fusion (human); assay: Western blot of peptide-IChBD fusion (FIG. 7)
Chain of K10N/V75I/Q111D human 39MIR triple mutant, IChBD fusion (human) (chain, as listed by the source K10N V75I Q111D K10N V75I Q111D): as the sequence (chain, as listed by the source K10N D70A K10N D70A) above, with A22D, V27I, Q35D counted along it

[15] = biological target: Torpedo 39MIR peptide-intein-chitin-binding domain (IChBD) fusion protein (Torpedo); assay: Western blot of peptide-IChBD fusion (FIG. 7)
[16] = biological target: V75I/Q111D human 39MIR double mutant, IChBD fusion (human); assay: Western blot of peptide-IChBD fusion (FIG. 7)
Chain of V75I/Q111D human 39MIR double mutant, IChBD fusion (human) (chain, as listed by the source V75I Q111D V75I Q111D): as the sequence (chain, as listed by the source K10N D70A K10N D70A) above, with N10K, A22D, V27I, Q35D counted along it

[17] = biological target: Torpedo 39MIR peptide-intein-chitin-binding domain (IChBD) fusion protein (Torpedo); assay: Western blot of peptide-IChBD fusion (Table 3)
[18] = biological target: K10N human 39MIR mutant, IChBD fusion (human); assay: Western blot
Chain of K10N human 39MIR mutant, IChBD fusion (human) (chain, as listed by the source K10N K10N): as the sequence (chain, as listed by the source K10N D70A K10N D70A) above, with A22D counted along it

[19] = biological target: Q111D human 39MIR mutant, IChBD fusion (human); assay: Western blot
Chain of Q111D human 39MIR mutant, IChBD fusion (human) (chain, as listed by the source Q111D Q111D): as the sequence (chain, as listed by the source K10N D70A K10N D70A) above, with N10K, A22D, Q35D counted along it

[20] = biological target: V75I human 39MIR mutant, IChBD fusion (human); assay: Western blot
Chain of V75I human 39MIR mutant, IChBD fusion (human) (chain, as listed by the source V75I V75I): as the sequence (chain, as listed by the source K10N D70A K10N D70A) above, with N10K, A22D, V27I counted along it

[21] = biological target: Torpedo 39MIR peptide-intein-chitin-binding domain (IChBD) fusion protein (Torpedo); assay: Western blot (FIG. 3)
[22] = biological target: K10N/D70A/V75I/Q111D human 39MIR quadruple mutant, IChBD fusion (human); assay: Western blot (FIG. 7)
[23] = biological target: K10N/V75I/Q111D human 39MIR triple mutant, IChBD fusion (human); assay: Western blot (FIG. 7)
[24] = biological target: Human 39MIR peptide-intein-chitin-binding domain (IChBD) fusion protein (human); assay: Western blot of peptide-IChBD fusion (FIG. 7)
Chain of Human 39MIR peptide-intein-chitin-binding domain (IChBD) fusion protein (human) (chain, as listed by the source): as the sequence (chain, as listed by the source K10N D70A K10N D70A) above, with N10K, A22D counted along it

[25] = biological target: D70A human 39MIR mutant, IChBD fusion (human); assay: Western blot of peptide-IChBD fusion (Table 3)
Chain of D70A human 39MIR mutant, IChBD fusion (human) (chain, as listed by the source D70A D70A): as the sequence (chain, as listed by the source K10N D70A K10N D70A) above, with N10K counted along it

[26] = biological target: Human 39MIR peptide-intein-chitin-binding domain (IChBD) fusion protein (human); assay: Western blot of peptide-IChBD fusion (Table 3)
[27] = biological target: K10N human 39MIR mutant, IChBD fusion (human); assay: Western blot of peptide-IChBD fusion (Table 3)
[28] = biological target: Q111D human 39MIR mutant, IChBD fusion (human); assay: Western blot of peptide-IChBD fusion (Table 3)
[29] = biological target: V75I human 39MIR mutant, IChBD fusion (human); assay: Western blot of peptide-IChBD fusion (Table 3)

Chain of Torpedo 39MIR peptide-intein-chitin-binding domain (IChBD) fusion protein (Torpedo) (chain, as listed by the source): as the sequence (chain, as listed by the source I75V I75V) above, with V27I counted along it
Chain of Torpedo 39MIR single mutant A70D, IChBD fusion (Torpedo) (chain, as listed by the source A70D A70D): as the sequence (chain, as listed by the source I75V I75V) above, with A22D, V27I counted along it
Chain of Torpedo 39MIR single mutant D111Q, IChBD fusion (Torpedo) (chain, as listed by the source D111Q D111Q): as the sequence (chain, as listed by the source I75V I75V) above, with V27I, D35Q counted along it

Row | fold-change in binding relative to Torpedo 39MIR [1] [fold] | fold-change in binding relative to Torpedo 39MIR [2] [fold] | fold-change in binding relative to Torpedo 39MIR [3] [fold] | fold-change in binding relative to Torpedo 39MIR [4] [fold] | fold-change in binding relative to Torpedo 39MIR [5] [fold] | fold-change in binding relative to Torpedo 39MIR [6] [fold] | fold-change in binding relative to Torpedo 39MIR [7] [fold] | fold-change in binding relative to Torpedo 39MIR [8] [fold] | fold-change in binding relative to Torpedo 39MIR [9] [fold] | fold-change in binding relative to Torpedo 39MIR [10] [fold] | fold-change in binding relative to Torpedo 39MIR [11] [fold] | fold-change in binding relative to Torpedo 39MIR [12] [fold] | fold-change in binding relative to Torpedo 39MIR [13] [fold] | fold-change in binding relative to Torpedo 39MIR [14] [fold] | fold-change in binding relative to Torpedo 39MIR [15] [fold] | fold-change in binding relative to Torpedo 39MIR [16] [fold] | fold-change in binding relative to Torpedo 39MIR [17] [fold] | fold-change in binding relative to Torpedo 39MIR [27] [fold] | fold-change in binding relative to Torpedo 39MIR [28] [fold] | fold-change in binding relative to Torpedo 39MIR [29] [fold] | Substance | also measured
1 | 1 | 0.2 | 0.07 | 0.06 | 0.4 | 1.1 | 0.03 | 1.55 | 1.65 | 0.16 | 0.99 | 1.07 | 1.25 | 2.46 | 1 | 3.34 | 1 |  |  |  | mAb 132A (antibody) | 
2 | 1 | 1.08 | 0.16 | 0.16 | 1.07 | 0.9 | 0.82 | 1.03 | 0.97 | 0.72 | 0.99 | 1.19 | 1.79 | 2.52 | 1 | 2.71 | 1 | 0.23 | 0.59 | 0.65 | mAb 198 (antibody) | fold improvement in binding compared to the human 39MIR [18]: 13 fold; fold improvement in binding compared to the human 39MIR [19]: 35.7 fold; fold improvement in binding compared to the human 39MIR [20]: 40 fold; fold stronger binding than to the human MIR mimic [21]: 50 fold; fold improvement in binding compared to the human 39MIR [22]: 11 fold; fold improvement in binding compared to the human 39MIR [23]: 28 fold; fold-change in binding relative to Torpedo 39MIR [24]: 0.09 fold; fold-change in binding relative to Torpedo 39MIR [25]: 0.02 fold; fold-change in binding relative to Torpedo 39MIR [26]: 0.02 fold
3 | 1 | 0.93 |  |  |  | 1.42 | 0.29 | 0.62 | 1.91 | 0.31 | 1.7 | 2.31 | 1.1 | 2.97 | 1 | 0.92 | 1 | 0.01 | 0.06 | 0.03 | mAb 35 (antibody) | 
